The text below walks through data of US20180222985A1, “ANTIBODIES AGAINST HUMAN CSF-1R FOR USE IN INDUCING LYMPHOCYTOSIS IN LYMPHOMAS OR LEUKEMIAS” (Hoffmann-La Roche Inc., priority 2015, published 2018).

The target of assay [1] is human wildtype CSF-1R (wt CSF-1R) (human, UniProt P07333 20-972). Description: cell-based or functional assay.
Assay [2] deals with human mutant CSF-1R L301S Y969F (human) (UniProt P07333). Description: cell-based or functional assay.
In the next assay the test system is MEC1 cells. Briefly: CLL xeno-transplantation system: MEC1 cells i.v. in Rag2−/−γc−/− mice. It is filed as in vivo.
Another assay relates to PBMCs from CLL patients. Briefly: In vitro cultures and cell-depletion assays from CLL samples (PBMCs). The conditions noted are these: etanercept 10 μg/ml, 24 h; 3 out of 4 samples. It is filed as cell-based, human.

Method for MEC1 cells: FIG. 4 Anti-leukemic effect of anti-CSF1R moAb in the CLL xeno-transplantation system. • (A-B-C-D-E) i.v. MEC1 challenged (day 0) Rag2^−/−γc^−/− mice were treated i.v. (day +11, +25) with 30 mg/Kg of anti-CSF1R moAb (n=3, white circles) or left untreated (n=4, black circles) and killed at day 27 (A). The mean value of the absolute number of CD11b+ F4/80+ cells gated on CD45+ in SP (B) and BM (C) is shown in graphs. The mean value of the absolute number of human CD19+ cells in the BM is shown in graph (D). The mean value of the absolute number of human CD19+ cells and of Ann-PI+ cells gated on hCD19+ cells in SP is shown in graphs (E). Data are from one representative experiment of three. Statistical analysis: *p<0.05, **p<0.01, Student's t test. (F-G-H-I) i.v. MEC1 challenged (day 0) Rag2^−/−γc^−/− mice were treated i.v. (day +11, +25) with 30 mg/Kg of anti-CSF1R moAb) (n=7, white circles) or left untreated (n=7, black circles) and killed at days 27 and 29, 48 h and 96 h after the last moAb injection (F). The mean value of the absolute number of human CD19+ cells and of Ann-PI+ cells gated on hCD19+ cells in SP at days 27, 29 is shown in graphs (G). […]
FIG. 5 Anti-leukemic effect and survival impact of anti-CSF1R moAb in the CLL xeno-transplantation system. • (A-B-C) i.v. MEC1 challenged (day 0) Rag2^−/−γc^−/− mice were treated i.v. (day +11, +25) with 30 mg/Kg of anti-CSF1R moAb (n=3, white circles) or left untreated (n=4, black circles) and killed at day 27 (A). […] Statistically significant differences were calculated using the Student t test. **p<0.01, ***p<0.001. (D-E) i.v. MEC1 challenged (day 0) Rag2^−/−γc^−/− mice were left untreated (n=10, black circles) or treated with: 30 mg/Kg i.v. of anti-CSF1R moAb (n=11, white circles; day +11, +25); or 30 mg/Kg i.p. of anti-CD20 moAb GA101 (n=10, blue circles; day +11, +25); or 30 mg/Kg i.p. of anti-CD20 moAb GA101 (day +11, +25)+30 mg/Kg i.v. of anti-CSF1R moAb (day +18, +32) (n=10, violet circles) and monitored for survival (D). […]
Method for PBMCs from CLL patients: Statistically significant differences were calculated using the Student t test. *p<0.05 • (C) hCD19+ CDS+ depletion after 24 h treatment (n=3) with 100 μM, 500 μM, 1000 μM of clodrolip, with (black bar) or without (white bar) etanercept (10 n/ml) was calculated by the following formula: 100−% remaining cells, where % remaining cells=(Absolute number in treated samples/Absolute number in untreated samples)×100. (*p<0.05), Student's t test. • (D) hCD19+ CDS+ depletion after 24 h treatment (n=3) with clodrolip 1000 μM, with (black bar) or without (white bar) blocking anti-TRAIL-R2 moAb (1 μg/ml) was calculated by the following formula: 100−% remaining cells, where % remaining cells=(Absolute number in treated samples/Absolute number in untreated samples)×100.
Fresh PBMCs from untreated CLL patients were seeded, as triplicates, at 3×10^6 cells/ml in culture medium and treated with clodrolip or PBS liposomes (100, 500, 1000 μM) for 30 min and 24 h, in presence or absence of etanercept (10 μg/ml), a TNF-α antagonist from Pfizer or anti-TRAIL-R2 (human, 1 μg/ml) moAb (HS201) from Adipogen AG. […] The specific percentage of remaining leukemic CD19+CD5+ or CD14+ cells in treated samples was calculated as (absolute number in treated samples/absolute number in control samples)×100. […]

In assay [1], “Anti CSF-1R SC 2-4A5 (Santa Cruz Biotechnology, US) (antibody)” returned a wtCSF-1R IC30 (30 percent inhibition of cell viability, CellTiterGlo, 3D spheroid culture) of 16.6 µg/mL. In addition, the Mutant CSF-1R IC30 (30 percent inhibition of cell viability, CellTiterGlo, 3D spheroid culture) in assay [2] came out at 2.56 µg/mL.

In the case of “GA101: glycoengineered humanized B-Ly1 antibody BHH6-B-KV1 GE, type II anti-human CD20”, in the assay on MEC1 cells (30 mg/Kg each, single agents days +11, +25, combination GA101 days +11, +25 + anti-CSF1R days +18, +32), the “survival of mice, p vs untreated control (Log-Rank test)” value was determined as 0.006.

As to etanercept, in the assay with PBMCs from CLL patients, the “effect on leukemic cell depletion induced by clodrolip (TNF blocked)” value is reported as “reduced”. Besides, in the assay with MEC1 cells (etanercept 10 mg/Kg i.p. from day +10, CSF1R moAb 30 mg/Kg i.v. days +11, +25, day 29), the “effect on anti-leukemic effect of CSF1R moAb in the SP” value is “abrogated”. Besides, in the assay on MEC1 cells (etanercept 10 mg/Kg i.p. from day +10, clodrolip 60 μl i.v. days +11, +25, day 26), the “effect on clodrolip-induced leukemic cell depletion in the BM” value is reported as “abated”.

“goat polyclonal anti-CSF-1R antibody ab10676 (abcam)” returned a wtCSF-1R IC30 (30 percent inhibition of cell viability, CellTiterGlo, 3D spheroid culture) in assay [1] of 14.2 µg/mL. In assay [2], this substance returned a Mutant CSF-1R IC30 (30 percent inhibition of cell viability, CellTiterGlo, 3D spheroid culture) of more than 20 µg/mL and a Mutant CSF-1R: inhibition of cell viability at 20 µg/ml of 0%.
